Results taken from patent US20240131059A1 (FUNDACI INSTITUT D INVESTIGACI BIOM DICA DE BELLVITGE …, published 2024).

Legend:
[1] = target: the molecule itself; test: SDS-PAGE under reducing and non-reducing conditions, Coomassie Blue staining and Western blot (self-association into the heptamer)
Text: (§1) For Western blot analysis, PRP-based proteins were resolved on 4-12% gradient SDS-PAGE (NuPAGE Bis-Tris 4-12% Mini Gels, Invitrogen) under reducing and non-reducing conditions and transferred to PVDF membrane. After blocking, the membrane was probed with primary antibodies: 1:2000 dil. polyclonal PK9008 rabbit anti-C4BP (a gift from Anna Blom), and 1:4000 dil. 6×His Monoclonal Antibody (Clontech, Mountain View, CA, USA), followed by the addition of 1:2000 dil. polyclonal Goat Anti-Rabbit IgG HRP (P0448, Dako, Agilent, Santa Clara. CA, USA), and 1:2000 dil. polyclonal Goat Anti-Mouse IgG HRP (P0447, Dako, Agilent, Santa Clara, CA, USA), respectively. Detection was performed with enhanced chemiluminescence (ECL) (Pierce, ThermoFischer, Carlsbad, CA, USA) using ChemiDoc Imager (Bio-Rad, Hercules, CA, USA).
(§2) In this regard, and to assess whether the C4BP CCP6 domain alone as a monomer or, conversely, in an heptavalent oligomerized form analogous to its physiological origin, would preserve the anti-inflammatory and immunomodulatory activities ascribed to PRP-HO7 (Olivar et al. (2013) J. Immunol. 190: 2857-2872). PRP6-HO7 and PRP6-NO were produced in HEK293 cells and were purified from its supernatants (FIG. 3). […]

[2] = target: the molecule itself; test: SDS-PAGE under non-reducing conditions, Coomassie Blue staining and Western blot (self-association)
Text: as §1, §2

Row | Protein | binding result [1] | binding result [2]
1 | mature recombinant polypeptide forming PRP6-HO7 (single monomer chain, 14.3 kDa) (other, Same chain as in m1; also called PRP6-HO7 monomer chain) HHHHHHLCCPEPKLNNGEITQHRKSRPANHCVYFYGDEISFSCHETSRFSAICQGDGTWSPRTPSCGDETPEGCEQVLTGKRLMQCLPNPEDVKMALEVYKLSLEIEQLELQRDSARQSTLDKEL | binds | –
2 | PRP6-NO, recombinant polypeptide formed by the CCP6 domain of C4BP(β-) fused at its C-terminus to a mutated C4BP(β-) oligomerization domain unable to … (other, Produced in Expi293 cells; Monomer of 12.7 kDa) HHHHHHLCCPEPKLNNGEITQHRKSRPANHCVYFYGDEISFSCHETSRFSAICQGDGTWSPRTPSCGDETPEGAEQVLTGKRLMQALPNPEDVKMALEVYKLSLEIEQLELQ | – | no binding
